Results as given in US20250073302A1, “CYCLIC PEPTIDES AS PROTEASOME STIMULATORS” (Purdue Research Foundation, priority 2023, published 2025).
Non-standard residues stand in square brackets, D forms with d. dBpa = N[C@H](Cc1ccc(C(=O)c2ccccc2)cc1)C(=O)O; dPhe(3,4-F2) = N[C@H](Cc1ccc(F)c(F)c1)C(=O)O; dPhe(3-F) = N[C@H](Cc1cccc(F)c1)C(=O)O; dPhe(4-F) = N[C@H](Cc1ccc(F)cc1)C(=O)O

Target: T1, 20S CP
T1 construct: purchased South Bay
Assay: TAS-1 biochemical assay (20S CP stimulation)
Conditions: TAS-1 assay
Description: Each compound was initially tested at 10 μM. Each well contained […] of 11.4 μM TAS-1 solution in Tris HCl (50 mM, pH 7.4) along with 5 nM of 20 sCP (South Bay). 1 μL of the test compound, control, or DMSO was added to the desired well to obtain a final DMSO concentration of 2%, with the total volume being 50 μL. Compounds were tested in three replicates that each had technical triplicates. The fluorescence was recorded using a SynergyNeo 2, where the excitation and emission was set to 335 nm and 493 nm. The plate reader was heated to 37° C. The fluorescence was recorded every 90 seconds over a 1-hour period. A simple linear regression was performed on the data plotted against time to obtain the rate of hydrolysis of TAS-1 by the 20S CP. The data was then normalized against DMSO to get the percent stimulation.

Substance | 20S CP stimulatory activity (in words, SAR compared to CyPPS1)
KLFFRA [SEQ ID NO: 7] (cyclo(K[dL]F[dF]R[dA]); SMILES CC(C)C[C@H]1NC(=O)[C@H](CCCCN)NC(=O)[C@@H](C)NC(=O)[C@H](CCCNC(=N)N)NC(=O)[C@@H](Cc2ccccc2)NC(=O)[C@H](Cc2ccccc2)NC1=O) [CyPPS7, cyclic peptide; AA1 Lys, AA2 D-Leu, AA3 Phe, AA4 D-Phe, AA5 Arg, AA6 D-Ala] | decreased activity
TAFFRA [SEQ ID NO: 3] (cyclo(T[dA]F[dF]R[dA]); SMILES C[C@H]1NC(=O)[C@H](CCCNC(=N)N)NC(=O)[C@@H](Cc2ccccc2)NC(=O)[C@H](Cc2ccccc2)NC(=O)[C@@H](C)NC(=O)[C@H]([C@@H](C)O)NC1=O) [CyPPS3, cyclic peptide; AA1 Thr, AA2 D-Ala, AA3 Phe, AA4 D-Phe, AA5 Arg, AA6 D-Ala] | greatest loss of stimulatory activity
TDFFRA [SEQ ID NO: 10] (cyclo(T[dD]F[dF]R[dA]); SMILES C[C@H]1NC(=O)[C@H](CCCNC(=N)N)NC(=O)[C@@H](Cc2ccccc2)NC(=O)[C@H](Cc2ccccc2)NC(=O)[C@@H](CC(=O)O)NC(=O)[C@H]([C@@H](C)O)NC1=O) [CyPPS10, cyclic peptide; AA1 Thr, AA2 D-Asp, AA3 Phe, AA4 D-Phe, AA5 Arg, AA6 D-Ala] | decreased activity
TIFFRA [SEQ ID NO: 12] (cyclo(T[dI]F[dF]R[dA]); SMILES CC[C@@H](C)[C@H]1NC(=O)[C@H]([C@@H](C)O)NC(=O)[C@@H](C)NC(=O)[C@H](CCCNC(=N)N)NC(=O)[C@@H](Cc2ccccc2)NC(=O)[C@H](Cc2ccccc2)NC1=O) [CyPPS12, cyclic peptide; AA1 Thr, AA2 D-Ile, AA3 Phe, AA4 D-Phe, AA5 Arg, AA6 D-Ala] | lack of activity
TKFFRA [SEQ ID NO: 11] (cyclo(T[dK]F[dF]R[dA]); SMILES C[C@H]1NC(=O)[C@H](CCCNC(=N)N)NC(=O)[C@@H](Cc2ccccc2)NC(=O)[C@H](Cc2ccccc2)NC(=O)[C@@H](CCCCN)NC(=O)[C@H]([C@@H](C)O)NC1=O) [CyPPS11, cyclic peptide; AA1 Thr, AA2 D-Lys, AA3 Phe, AA4 D-Phe, AA5 Arg, AA6 D-Ala] | decreased activity
TLFARA [SEQ ID NO: 5] (cyclo(T[dL]F[dA]R[dA]); SMILES CC(C)C[C@H]1NC(=O)[C@H]([C@@H](C)O)NC(=O)[C@@H](C)NC(=O)[C@H](CCCNC(=N)N)NC(=O)[C@@H](C)NC(=O)[C@H](Cc2ccccc2)NC1=O) [CyPPS5, cyclic peptide; AA1 Thr, AA2 D-Leu, AA3 Phe, AA4 D-Ala, AA5 Arg, AA6 D-Ala] | greatest loss of stimulatory activity
TLFFAR [SEQ ID NO: 6] (cyclo(T[dL]F[dF]A[dR]); SMILES CC(C)C[C@H]1NC(=O)[C@H]([C@@H](C)O)NC(=O)[C@@H](CCCNC(=N)N)NC(=O)[C@H](C)NC(=O)[C@@H](Cc2ccccc2)NC(=O)[C@H](Cc2ccccc2)NC1=O) [CyPPS6, cyclic peptide; AA1 Thr, AA2 D-Leu, AA3 Phe, AA4 D-Phe, AA5 Ala, AA6 D-Arg] | stimulatory activity was preserved
TLFFRS [SEQ ID NO: 22] (cyclo(T[dL]F[dF]R[dS]); SMILES CC(C)C[C@H]1NC(=O)[C@H]([C@@H](C)O)NC(=O)[C@@H](CO)NC(=O)[C@H](CCCNC(=N)N)NC(=O)[C@@H](Cc2ccccc2)NC(=O)[C@H](Cc2ccccc2)NC1=O) [CyPPS22, cyclic peptide; AA1 Thr, AA2 D-Leu, AA3 Phe, AA4 D-Phe, AA5 Arg, AA6 D-Ser] | maintained stimulatory activity
TLFXRA [SEQ ID NO: 18] (cyclo(T[dL]F[dPhe(4-F)]R[dA]); SMILES CC(C)C[C@H]1NC(=O)[C@H]([C@@H](C)O)NC(=O)[C@@H](C)NC(=O)[C@H](CCCNC(=N)N)NC(=O)[C@@H](Cc2ccc(F)cc2)NC(=O)[C@H](Cc2ccccc2)NC1=O) [CyPPS18, cyclic peptide; AA1 Thr, AA2 D-Leu, AA3 Phe, AA4 D-Phe (4F), AA5 Arg, AA6 D-Ala] | decreased activity
TLFXRA [SEQ ID NO: 19] (cyclo(T[dL]F[dPhe(3-F)]R[dA]); SMILES CC(C)C[C@H]1NC(=O)[C@H]([C@@H](C)O)NC(=O)[C@@H](C)NC(=O)[C@H](CCCNC(=N)N)NC(=O)[C@@H](Cc2cccc(F)c2)NC(=O)[C@H](Cc2ccccc2)NC1=O) [CyPPS19, cyclic peptide; AA1 Thr, AA2 D-Leu, AA3 Phe, AA4 D-Phe (3F), AA5 Arg, AA6 D-Ala] | retained activity
TLFXRA [SEQ ID NO: 20] (cyclo(T[dL]F[dPhe(3,4-F2)]R[dA]); SMILES CC(C)C[C@H]1NC(=O)[C@H]([C@@H](C)O)NC(=O)[C@@H](C)NC(=O)[C@H](CCCNC(=N)N)NC(=O)[C@@H](Cc2ccc(F)c(F)c2)NC(=O)[C@H](Cc2ccccc2)NC1=O) [CyPPS20, cyclic peptide; AA1 Thr, AA2 D-Leu, AA3 Phe, AA4 D-Phe (3, 4F), AA5 Arg, AA6 D-Ala] | retained activity
TLFXRA [SEQ ID NO: 21] (cyclo(T[dL]F[dBpa]R[dA]); SMILES CC(C)C[C@H]1NC(=O)[C@H]([C@@H](C)O)NC(=O)[C@@H](C)NC(=O)[C@H](CCCNC(=N)N)NC(=O)[C@@H](Cc2ccc(C(=O)c3ccccc3)cc2)NC(=O)[C@H](Cc2ccccc2)NC1=O) [CyPPS21, cyclic peptide; AA1 Thr, AA2 D-Leu, AA3 Phe, AA4 D-BPA, AA5 Arg, AA6 D-Ala] | stimulatory activity was maintained
TLFYRA [SEQ ID NO: 17] (cyclo(T[dL]F[dY]R[dA]); SMILES CC(C)C[C@H]1NC(=O)[C@H]([C@@H](C)O)NC(=O)[C@@H](C)NC(=O)[C@H](CCCNC(=N)N)NC(=O)[C@@H](Cc2ccc(O)cc2)NC(=O)[C@H](Cc2ccccc2)NC1=O) [CyPPS17, cyclic peptide; AA1 Thr, AA2 D-Leu, AA3 Phe, AA4 D-Tyr, AA5 Arg, AA6 D-Ala] | decline in stimulatory activity
TLYFRA [SEQ ID NO: 16] (cyclo(T[dL]Y[dF]R[dA]); SMILES CC(C)C[C@H]1NC(=O)[C@H]([C@@H](C)O)NC(=O)[C@@H](C)NC(=O)[C@H](CCCNC(=N)N)NC(=O)[C@@H](Cc2ccccc2)NC(=O)[C@H](Cc2ccc(O)cc2)NC1=O) [CyPPS16, cyclic peptide; AA1 Thr, AA2 D-Leu, AA3 Tyr, AA4 D-Phe, AA5 Arg, AA6 D-Ala] | decline in stimulatory activity
VLFFRA [SEQ ID NO: 9] (cyclo(V[dL]F[dF]R[dA]); SMILES CC(C)C[C@H]1NC(=O)[C@H](C(C)C)NC(=O)[C@@H](C)NC(=O)[C@H](CCCNC(=N)N)NC(=O)[C@@H](Cc2ccccc2)NC(=O)[C@H](Cc2ccccc2)NC1=O) [CyPPS9, cyclic peptide; AA1 Val, AA2 D-Leu, AA3 Phe, AA4 D-Phe, AA5 Arg, AA6 D-Ala] | maintained stimulatory activity
